The results in this text go back to publication doi:10.1101/288472.

In general, stoichiometry N refers to the number of molecules, sites or subunits per partner or assembly.

This assay addresses uncleaved full-length membrane-anchored HIV-1_(JR-FL) Env(-) glycoprotein (HIV-1 (JR-FL)). The assay can be described thus: cryo-EM structure.

Consider “uncleaved full-length membrane-anchored HIV-1_(JR-FL) Env(-) glycoprotein (natural protein)”, for which the stoichiometry N is 3.
